Data on two molecules can be found in patent publication US20110183917A1 (UNIVERSITY OF MARYLAND BALTIMORE, published 2011).

Experiment [1] has as its target T1, synMDM2 (synthetic MDM2 comprising amino acids 25-109 of the full length MDM2 protein) (human, UniProt Q00987 25-109).
T1 construct: range 25-109; A biotinylated form (biotin-synMDM2) was the bait in the phage selections; also called biotin-synMDM2
Put plainly: phage display selection, peptide on M13 pIII, biotin-synMDM2 as bait.

Experiment [2] has as its target T2, synMDMX (synthetic MDMX comprising amino acids 24-108 of the full length MDMX protein) (human, UniProt O15151 24-108).
T2 construct: range 24-108; A biotinylated form was the bait in the phage selections; also called MDM4; biotin-synMDMX
T2 sequence (looked up): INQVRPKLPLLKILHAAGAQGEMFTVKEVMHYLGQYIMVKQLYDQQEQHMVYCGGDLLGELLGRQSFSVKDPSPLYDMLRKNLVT
In words: phage display selection, peptide on M13 pIII, biotin-synMDMX as bait.

Experiment [3] addresses T2, synMDMX (synthetic MDMX comprising …). Put plainly: SPR competition, immobilized 15-29p53.

T1 sequence (Q00987 25-109 limits assumed): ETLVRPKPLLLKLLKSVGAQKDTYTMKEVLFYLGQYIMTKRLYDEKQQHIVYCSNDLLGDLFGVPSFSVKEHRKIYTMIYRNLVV

B1: L-PMI-2 (peptide)
peptide: DDWFQRVWSPLM
notes: Reported only as a phage clone: the 12-mer was fused through a GlyGlyGlySer spacer to the N-terminus of M13 pIII
With B1, the binding result in experiment [1] and in experiment [2] was “binds” throughout.

B2: stoppin-1 (designed binder)
chain: CYSFDCLWKCLAMGFSSGKCINSKCKC
notes: also called L-Stoppin-1
With B2, the “fold lower affinity than 15-29p53” value in experiment [3] was approximately 4 fold.
